Data on 4 molecules can be found in paper PMC2871490 (The Journal of Biological Chemistry, 2010).

Some targets named below: His6-Daam1 CT (human, UniProt Q9Y4D1 490-1078); GST-Daam1 CT L1040A (human, UniProt Q9Y4D1 490-1078, L1040A); GST-Daam1 CT WT (human, UniProt Q9Y4D1 490-1078).
Experiment in all cases: pull-down
The target of another experiment is T1, His6-Fli-I G1–6 (human, UniProt Q13045 461-1269).
T1 sequence: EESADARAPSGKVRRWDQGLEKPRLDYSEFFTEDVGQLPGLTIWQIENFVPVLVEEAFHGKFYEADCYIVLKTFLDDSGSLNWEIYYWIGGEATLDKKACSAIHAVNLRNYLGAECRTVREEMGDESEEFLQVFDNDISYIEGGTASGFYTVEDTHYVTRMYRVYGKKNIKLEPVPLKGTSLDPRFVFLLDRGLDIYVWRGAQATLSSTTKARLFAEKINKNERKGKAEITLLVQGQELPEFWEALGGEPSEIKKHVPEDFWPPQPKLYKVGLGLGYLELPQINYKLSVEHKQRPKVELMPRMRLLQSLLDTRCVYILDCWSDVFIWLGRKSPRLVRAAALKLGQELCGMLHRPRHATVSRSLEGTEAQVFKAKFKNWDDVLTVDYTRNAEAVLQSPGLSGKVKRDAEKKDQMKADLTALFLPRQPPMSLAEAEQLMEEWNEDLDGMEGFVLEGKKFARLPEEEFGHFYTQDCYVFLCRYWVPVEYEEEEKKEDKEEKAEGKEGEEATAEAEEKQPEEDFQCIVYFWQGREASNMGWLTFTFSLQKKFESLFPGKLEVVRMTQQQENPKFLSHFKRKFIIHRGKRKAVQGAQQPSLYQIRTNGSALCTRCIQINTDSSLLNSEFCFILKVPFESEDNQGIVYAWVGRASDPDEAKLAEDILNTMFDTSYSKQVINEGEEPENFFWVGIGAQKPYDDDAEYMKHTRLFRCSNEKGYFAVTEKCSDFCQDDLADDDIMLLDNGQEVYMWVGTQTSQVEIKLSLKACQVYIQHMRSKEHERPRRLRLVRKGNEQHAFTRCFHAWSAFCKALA

The next experiment concerns the target T2, His6-Daam1 NT (human, UniProt Q9Y4D1 41-477).
T2 sequence: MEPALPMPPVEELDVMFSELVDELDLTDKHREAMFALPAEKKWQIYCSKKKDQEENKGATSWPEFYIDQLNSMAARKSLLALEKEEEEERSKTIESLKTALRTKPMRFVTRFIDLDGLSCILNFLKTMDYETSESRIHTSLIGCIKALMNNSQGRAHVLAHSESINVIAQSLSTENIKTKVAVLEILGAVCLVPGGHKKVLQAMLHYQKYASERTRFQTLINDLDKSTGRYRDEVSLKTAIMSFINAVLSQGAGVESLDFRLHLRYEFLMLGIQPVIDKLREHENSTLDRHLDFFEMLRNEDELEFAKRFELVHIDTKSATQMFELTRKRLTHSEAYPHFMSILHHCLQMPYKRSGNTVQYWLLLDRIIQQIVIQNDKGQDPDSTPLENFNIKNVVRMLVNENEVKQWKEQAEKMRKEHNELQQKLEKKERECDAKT

B1: GST-Daam1 NT (domain or fragment)
chain: MEPALPMPPVEELDVMFSELVDELDLTDKHREAMFALPAEKKWQIYCSKKKDQEENKGATSWPEFYIDQLNSMAARKSLLALEKEEEEERSKTIESLKTALRTKPMRFVTRFIDLDGLSCILNFLKTMDYETSESRIHTSLIGCIKALMNNSQGRAHVLAHSESINVIAQSLSTENIKTKVAVLEILGAVCLVPGGHKKVLQAMLHYQKYASERTRFQTLINDLDKSTGRYRDEVSLKTAIMSFINAVLSQGAGVESLDFRLHLRYEFLMLGIQPVIDKLREHENSTLDRHLDFFEMLRNEDELEFAKRFELVHIDTKSATQMFELTRKRLTHSEAYPHFMSILHHCLQMPYKRSGNTVQYWLLLDRIIQQIVIQNDKGQDPDSTPLENFNIKNVVRMLVNENEVKQWKEQAEKMRKEHNELQQKLEKKERECDAKT
As for B1, the binding result in the experiment with His6-Daam1 CT is given as “binds”.

B2: GST-Daam1 DAD (domain or fragment)
chain: NMRKKKEEEERRARMEAQLKEQRERERKMRKAKENSEESGEFDDLVSALRSGEVFDKDLSKLKRNRKRITNQMTDSSRERPITKLNF
Regarding B2, the binding result with His6-Fli-I G1–6 and with His6-Daam1 NT was “binds” throughout.

B3: His6-Fli-I G4–6 (domain or fragment)
chain: KKDQMKADLTALFLPRQPPMSLAEAEQLMEEWNEDLDGMEGFVLEGKKFARLPEEEFGHFYTQDCYVFLCRYWVPVEYEEEEKKEDKEEKAEGKEGEEATAEAEEKQPEEDFQCIVYFWQGREASNMGWLTFTFSLQKKFESLFPGKLEVVRMTQQQENPKFLSHFKRKFIIHRGKRKAVQGAQQPSLYQIRTNGSALCTRCIQINTDSSLLNSEFCFILKVPFESEDNQGIVYAWVGRASDPDEAKLAEDILNTMFDTSYSKQVINEGEEPENFFWVGIGAQKPYDDDAEYMKHTRLFRCSNEKGYFAVTEKCSDFCQDDLADDDIMLLDNGQEVYMWVGTQTSQVEIKLSLKACQVYIQHMRSKEHERPRRLRLVRKGNEQHAFTRCFHAWSAFCKALA
On to B3, for which the binding result with GST-Daam1 CT L1040A, with GST-Daam1 CT WT and with His6-Daam1 CT was “binds” in each case.

B4: GST-Fli-I G4–6 (domain or fragment)
chain: KKDQMKADLTALFLPRQPPMSLAEAEQLMEEWNEDLDGMEGFVLEGKKFARLPEEEFGHFYTQDCYVFLCRYWVPVEYEEEEKKEDKEEKAEGKEGEEATAEAEEKQPEEDFQCIVYFWQGREASNMGWLTFTFSLQKKFESLFPGKLEVVRMTQQQENPKFLSHFKRKFIIHRGKRKAVQGAQQPSLYQIRTNGSALCTRCIQINTDSSLLNSEFCFILKVPFESEDNQGIVYAWVGRASDPDEAKLAEDILNTMFDTSYSKQVINEGEEPENFFWVGIGAQKPYDDDAEYMKHTRLFRCSNEKGYFAVTEKCSDFCQDDLADDDIMLLDNGQEVYMWVGTQTSQVEIKLSLKACQVYIQHMRSKEHERPRRLRLVRKGNEQHAFTRCFHAWSAFCKALA
Take B4: in the experiment with His6-Daam1 CT, the binding result is “binds”.
